± gives the uncertainty stated by the source.

The data set is described as follows: protein stability index of a GFP-peptide fusion (yeast GPS) (PSI 1-4); higher = more stable; sorted into four equal gates, so the index is relative within each strain. The essentials: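 Sequencing reads from sorted gates were used to score each peptide. The library consisted of tiled 17-residue yeast protein peptides fused downstream of GFP on a Cherry-expressing plasmid, pooled and carried in yeast. Mid-log cultures in leucine-free medium were split into four equal gates by GFP/Cherry ratio, and each gate's plasmids were PCR-amplified and Illumina-sequenced. The protein stability index adds up, over all gates, the read frequency multiplied by the gate number.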

Take ANVLDPSLRKLIESGIG [BRR2]: the protein stability index was determined as 1.87 ± 0.064 (doa10∆), 2.38 ± 0.071 (pdr5∆), 2.47 ± 0.095 (san1∆) and 2.56 ± 0.045 (ubr1∆).

As to TEISGLKNVNKRAFENF [SMC3], the protein stability index was determined as 3.28 ± 0.079 (doa10∆), 3.09 ± 0.097 (pdr5∆), 2.7 ± 0.096 (san1∆) and 2.96 ± 0.057 (ubr1∆).

LDGELDFDDFLKLGLVE [RET1] registered a protein stability index (doa10∆) of 3.36 ± 0.16, a protein stability index (pdr5∆) of 3.08 ± 0.12, a protein stability index (san1∆) of 2.81 ± 0.13 and a protein stability index (ubr1∆) of 2.56 ± 0.17.

For the sequence SNIPNLLRNLESKMRQQ [YDL088C/ASM4], the protein stability index is, setting by setting: (doa10∆) 3.15 ± 0.11; (pdr5∆) 2.84 ± 0.086; (san1∆) 2.97 ± 0.12; (ubr1∆) 3.07 ± 0.062.

Consider YLIVAGVDPTGSHLFSI [PUP1], for which the protein stability index reads like this: (doa10∆) 1.84 ± 0.081; (pdr5∆) 2.24 ± 0.085; (san1∆) 1.94 ± 0.14; (ubr1∆) 2.09 ± 0.068.

The sequence LKREERQGLIHQGSGGS [SMC3] returned a protein stability index (pdr5∆) of 3.52 ± 0.1.

With GAISAVAATNTPIIFIG [SRP54], the protein stability index came to 2.85 ± 0.085 (doa10∆), 3.42 ± 0.17 (pdr5∆), 2.69 ± 0.073 (san1∆) and 2.66 ± 0.086 (ubr1∆).

QIQKNVDLLQFPWLNAI [POP3] displayed a protein stability index (doa10∆) of 2.29 ± 0.07, a protein stability index (pdr5∆) of 2.09 ± 0.073, a protein stability index (san1∆) of 3.32 ± 0.11 and a protein stability index (ubr1∆) of 2.35 ± 0.06.

NQILMSVNFFVSLLKKN [RPL1A]: the protein stability index runs as follows: (doa10∆) 1.84 ± 0.052; (pdr5∆) 2.35 ± 0.046; (san1∆) 2.15 ± 0.075; (ubr1∆) 2.39 ± 0.04.

In the case of ATLPYIKQDIPIVIIFR [RPB2], the protein stability index amounted to 1.5 ± 0.063 (doa10∆), 1.2 ± 0.049 (pdr5∆), 1.19 ± 0.12 (san1∆) and 1.14 ± 0.041 (ubr1∆).

For the sequence VKDEAFDDLLKPVYKGK [RET1], the protein stability index by setting is: (doa10∆) 3.35 ± 0.16; (pdr5∆) 3.32 ± 0.15; (san1∆) 3.3 ± 0.11; (ubr1∆) 3.12 ± 0.17.

In the case of LKKLEKFMELERKTLER [SWI3], the protein stability index is, setting by setting: (doa10∆) 2.95 ± 0.061; (pdr5∆) 2.84 ± 0.069; (san1∆) 3.18 ± 0.046; (ubr1∆) 2.66 ± 0.058.

The sequence MNFISKEEFIMMVNISV [PCI8] gave a protein stability index (doa10∆) of 1.41 ± 0.059, a protein stability index (pdr5∆) of 1.25 ± 0.046, a protein stability index (san1∆) of 1.32 ± 0.16 and a protein stability index (ubr1∆) of 1.37 ± 0.063.

Regarding LNFYITNVPKAKKRKTL [SIR3], the protein stability index reads like this: (doa10∆) 1.97 ± 0.12; (pdr5∆) 1.86 ± 0.093; (san1∆) 1.63 ± 0.12; (ubr1∆) 1.86 ± 0.071.

Take GAVGLKDLTLCRYSCLA [YCS4]: the protein stability index by setting is: (doa10∆) 2.4 ± 0.095; (pdr5∆) 2.42 ± 0.1; (san1∆) 1.94 ± 0.12; (ubr1∆) 2.13 ± 0.085.

FIRHVAKLNYKNLNPAS [ECM29]: the protein stability index was 2.49 ± 0.15 (doa10∆), 1.16 ± 0.1 (pdr5∆) and 1.03 ± 0.076 (ubr1∆).

For LILSGDTTANNGKVQYF [YJL039C/NUP192], the protein stability index (doa10∆) came out at 2.89 ± 0.091, the protein stability index (pdr5∆) was determined as 2.52 ± 0.086, the protein stability index (san1∆) was determined as 2.9 ± 0.09 and the protein stability index (ubr1∆) stood at 2.95 ± 0.064.

VGLSQPDAKIQVRRDIP [YMR129W/POM152]: the protein stability index by setting is: (doa10∆) 2.98 ± 0.082; (pdr5∆) 2.76 ± 0.14; (san1∆) 2.51 ± 0.059; (ubr1∆) 2.97 ± 0.066.

Turning to GYLIQVLLTFLQDELHK [YCS4], the protein stability index runs as follows: (doa10∆) 2.97 ± 0.1; (pdr5∆) 2.02 ± 0.088; (san1∆) 2.01 ± 0.12; (ubr1∆) 3.24 ± 0.096.

Turning to IQSKRLRNKIAGYTTHL [RPS17A], the protein stability index was 3.16 ± 0.1 (doa10∆), 3.41 ± 0.088 (pdr5∆), 3.23 ± 0.065 (san1∆) and 3.36 ± 0.072 (ubr1∆).

For PLRGALATYGLTIDDLG [FAS2], the protein stability index runs as follows: (doa10∆) 2.38 ± 0.087; (pdr5∆) 2.51 ± 0.1; (san1∆) 2.19 ± 0.1; (ubr1∆) 2.72 ± 0.079.

As for REGRHSGYGKRKGTREA [RPL19A], the protein stability index runs as follows: (pdr5∆) 3.21 ± 0.27; (ubr1∆) 3.52 ± 0.25.

In the case of QYEHLIKGIREYEEWQK [YDL116W/NUP84], the protein stability index (doa10∆) turned out to be 3.11 ± 0.1, the protein stability index (pdr5∆) was determined as 2.99 ± 0.079, the protein stability index (san1∆) is 2.88 ± 0.13 and the protein stability index (ubr1∆) is 2.62 ± 0.083.

Consider RSPPRPPSLKIIDGPKA [PRP28], for which the protein stability index (doa10∆) was 2.23 ± 0.07, the protein stability index (pdr5∆) is 2.27 ± 0.079, the protein stability index (san1∆) is 1.98 ± 0.094 and the protein stability index (ubr1∆) is 1.74 ± 0.041.

EKLAVSALEQAIIYQRG [YGL100W/SEH1] returned a protein stability index (doa10∆) of 2.04 ± 0.097, a protein stability index (pdr5∆) of 2.38 ± 0.11, a protein stability index (san1∆) of 2.11 ± 0.096 and a protein stability index (ubr1∆) of 2.4 ± 0.12.

As to LYENIASSPIILEEGSS [RPN10], the protein stability index (doa10∆) amounted to 2.2 ± 0.04, the protein stability index (pdr5∆) was 2.37 ± 0.047, the protein stability index (san1∆) is 2.35 ± 0.06 and the protein stability index (ubr1∆) amounted to 2.35 ± 0.036.

With ESLVHSALCILKEQELV [BRR2], the protein stability index (doa10∆) worked out at 2.35 ± 0.2, the protein stability index (pdr5∆) was 1.77 ± 0.079, the protein stability index (san1∆) turned out to be 1.92 ± 0.14 and the protein stability index (ubr1∆) is 2.51 ± 0.13.

Take DSLTQNNNNAPIIIYGT [YOR098C/NUP1]: the protein stability index is 2.69 ± 0.047 (doa10∆), 2.93 ± 0.041 (pdr5∆), 2.8 ± 0.041 (san1∆) and 2.92 ± 0.038 (ubr1∆).

In turn, PKSTLDNWRREFLKWTP [ISW2] registered a protein stability index (pdr5∆) of 3.15 ± 0.15 and a protein stability index (ubr1∆) of 2.76 ± 0.09.

Take DVVEYLDKVINKELPIN [RPN8]: the protein stability index runs as follows: (doa10∆) 2.82 ± 0.22; (pdr5∆) 3 ± 0.2; (ubr1∆) 3.12 ± 0.19.

On to NRRLFKKCIDFFEMLIS [RRI2], for which the protein stability index runs as follows: (doa10∆) 2.2 ± 0.037; (pdr5∆) 2.05 ± 0.045; (san1∆) 2.12 ± 0.058; (ubr1∆) 2.02 ± 0.03.

As for TKNLSILTSKVNAIKNE [DSN1], the protein stability index by setting is: (doa10∆) 1.66 ± 0.076; (pdr5∆) 2.13 ± 0.056; (san1∆) 2.39 ± 0.11; (ubr1∆) 1.69 ± 0.06.

As to ISDIPYVISLSYTDAQD [YMR129W/POM152], the protein stability index came to 2.16 ± 0.066 (doa10∆), 2.41 ± 0.068 (pdr5∆), 2.5 ± 0.061 (san1∆) and 2.64 ± 0.06 (ubr1∆).

As to LKVTKKHGAKKVAKRTK [RPL27A], the protein stability index runs as follows: (doa10∆) 3.37 ± 0.13; (pdr5∆) 3.54 ± 0.17; (san1∆) 3.39 ± 0.11; (ubr1∆) 3.18 ± 0.13.

On to KTQEYYTQYTNDYLEKH [CDC53], for which the protein stability index runs as follows: (doa10∆) 2.99 ± 0.062; (pdr5∆) 2.42 ± 0.067; (san1∆) 2.96 ± 0.049; (ubr1∆) 3.22 ± 0.062.

As to NFYRPLLRSVLVLLELV [YML103C/NUP188], the protein stability index was 1.23 ± 0.066 (doa10∆), 1.21 ± 0.087 (pdr5∆), 1.18 ± 0.12 (san1∆) and 1.06 ± 0.074 (ubr1∆).

As for ETKWDDADEKSSNLYET [YJR042W/NUP85], the protein stability index runs as follows: (pdr5∆) 3.22 ± 0.15; (san1∆) 3.02 ± 0.13; (ubr1∆) 3.25 ± 0.097.

SLRILAKLSERSNGSVA [YJL039C/NUP192]: the protein stability index worked out at 2.5 ± 0.048 (doa10∆), 2.27 ± 0.04 (pdr5∆), 1.93 ± 0.067 (san1∆) and 2.42 ± 0.043 (ubr1∆).

As for FGVSFIYAGYDDRYGYQ [PRE9], the protein stability index came to 2.33 ± 0.09 (doa10∆), 2.61 ± 0.097 (pdr5∆), 2.04 ± 0.19 (san1∆) and 2.45 ± 0.11 (ubr1∆).

Turning to EEKPDVTYSDVGGCKDQ [RPT1], the protein stability index turned out to be 3.48 ± 0.16 (doa10∆), 3.65 ± 0.19 (pdr5∆), 3.04 ± 0.23 (san1∆) and 3.41 ± 0.11 (ubr1∆).

Values taken from the supplement of paper PMC9732359.
